The target in this assay is GST-Src (UniProt P12931 1-536). The assay can be described thus: pull-down.

B1: (His)6-tagged EB1 (natural protein, UniProt Q15691 1-268, looked up)
chain: MAVNVYSTSVTSDNLSRHDMLAWINESLQLNLTKIEQLCSGAAYCQFMDMLFPGSIALKKVKFQAKLEHEYIQNFKILQAGFKRMGVDKIIPVDKLVKGKFQDNFEFVQWFKKFFDANYDGKDYDPVAARQGQETAVAPSLVAPALNKPKKPLTSSSAAPQRPISTQRTAAAPKAGPGVVRKNPGVGNGDDEAAELMQQVNVLKLTVEDLEKERDFYFGKLRNIELICQENEGENDPVLQRIVDILYATDEGFVIPDEGGPQEEQEEY
Turning to B1, the binding result is reported as “binds”.

The record behind these values is PMC5039685 (Theranostics, 2016).
